{"source": "paper PMC3420917", "about": "“A Combinatorial Amino Acid Code for RNA Recognition by Pentatricopeptide Repeat Proteins” (PLoS Genetics, 2012)", "key": {"PPR10 TD variant [1]": {"target": "T1, PPR10 TD variant (maize, UniProt B8Y6I0 96-786, N284T;N319T;N349D)", "T1 sequence": "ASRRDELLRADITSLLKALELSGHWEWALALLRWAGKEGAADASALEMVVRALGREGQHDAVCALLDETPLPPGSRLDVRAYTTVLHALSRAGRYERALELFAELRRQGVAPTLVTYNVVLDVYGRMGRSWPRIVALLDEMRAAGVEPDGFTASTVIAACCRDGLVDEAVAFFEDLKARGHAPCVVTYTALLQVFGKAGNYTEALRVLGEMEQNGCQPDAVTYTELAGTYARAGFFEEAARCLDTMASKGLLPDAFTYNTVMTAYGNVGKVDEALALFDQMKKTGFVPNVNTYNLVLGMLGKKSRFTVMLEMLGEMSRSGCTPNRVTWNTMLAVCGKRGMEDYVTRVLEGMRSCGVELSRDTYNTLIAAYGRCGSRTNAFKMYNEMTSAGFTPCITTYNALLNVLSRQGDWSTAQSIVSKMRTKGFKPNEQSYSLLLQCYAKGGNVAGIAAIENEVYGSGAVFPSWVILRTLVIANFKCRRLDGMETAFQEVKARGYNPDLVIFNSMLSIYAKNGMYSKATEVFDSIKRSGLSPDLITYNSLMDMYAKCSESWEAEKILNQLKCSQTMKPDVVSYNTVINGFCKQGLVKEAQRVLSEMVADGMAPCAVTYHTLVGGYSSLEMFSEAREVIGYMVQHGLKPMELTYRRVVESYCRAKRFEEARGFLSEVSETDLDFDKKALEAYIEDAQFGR", "assay": "EMSA; high affinity; EMSA: radiolabeled RNA 15 pM, protein 0, 5, 10, 20 nM; binding buffer and temperature by reference [12]; protein stock in 400 mM NaCl, 50 mM Tris-HCl pH 7.5, 5", "details": "protein: recombinant; tags: MBP fusion removed by TEV cleavage; label: radiolabeled; single-stranded"}, "rPPR10 wild-type": {"target": "T2, rPPR10 wild-type (maize, UniProt B8Y6I0 96-786)", "T2 sequence": "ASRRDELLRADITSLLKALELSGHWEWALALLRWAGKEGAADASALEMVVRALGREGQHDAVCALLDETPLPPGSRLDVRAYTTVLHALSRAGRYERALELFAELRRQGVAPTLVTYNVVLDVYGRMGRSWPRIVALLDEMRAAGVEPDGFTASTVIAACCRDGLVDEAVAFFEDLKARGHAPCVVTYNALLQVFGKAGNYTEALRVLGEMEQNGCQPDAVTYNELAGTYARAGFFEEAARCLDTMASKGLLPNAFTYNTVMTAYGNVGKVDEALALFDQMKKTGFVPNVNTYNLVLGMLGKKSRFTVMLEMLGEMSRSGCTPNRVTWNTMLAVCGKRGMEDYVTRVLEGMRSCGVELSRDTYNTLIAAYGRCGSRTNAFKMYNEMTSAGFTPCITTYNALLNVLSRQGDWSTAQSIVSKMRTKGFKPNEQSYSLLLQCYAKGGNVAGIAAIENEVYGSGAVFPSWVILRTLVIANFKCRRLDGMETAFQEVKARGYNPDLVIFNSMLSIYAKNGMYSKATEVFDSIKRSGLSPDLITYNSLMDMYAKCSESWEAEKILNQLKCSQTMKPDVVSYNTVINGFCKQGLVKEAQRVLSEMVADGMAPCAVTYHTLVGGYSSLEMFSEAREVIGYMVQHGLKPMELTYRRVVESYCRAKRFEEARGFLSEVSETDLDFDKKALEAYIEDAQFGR", "assay": "EMSA; EMSA: radiolabeled RNA 15 pM, protein 0, 5, 10, 20 nM; binding buffer and temperature by reference [12]; protein stock in 400 mM NaCl, 50 mM Tris-HCl pH 7.5, 5", "details": "protein: recombinant; tags: MBP fusion removed by TEV cleavage; label: radiolabeled; single-stranded"}, "[2]": {"target": "the molecule itself", "assay": "AUC; sedimentation velocity; rPPR10 alone at 3, 6 and 12 µM; 20°C, 50,000 rpm, interference optics; 250 mM NaCl, 50 mM Tris-HCl pH 7.5, 5 mM ß-mercaptoethanol; monomer to dimer"}, "PPR10 TD variant [3]": {"target": "T1, PPR10 TD variant", "assay": "EMSA; EMSA: radiolabeled RNA 15 pM, protein 0, 5, 10, 20 nM; binding buffer and temperature by reference [12]; protein stock in 400 mM NaCl, 50 mM Tris-HCl pH 7.5, 5", "details": "protein: recombinant; tags: MBP fusion removed by TEV cleavage; label: radiolabeled; single-stranded"}, "PPR10 TN variant [4]": {"target": "T3, PPR10 TN variant (maize, UniProt B8Y6I0 96-786, N284T;D314N;N319T)", "T3 sequence": "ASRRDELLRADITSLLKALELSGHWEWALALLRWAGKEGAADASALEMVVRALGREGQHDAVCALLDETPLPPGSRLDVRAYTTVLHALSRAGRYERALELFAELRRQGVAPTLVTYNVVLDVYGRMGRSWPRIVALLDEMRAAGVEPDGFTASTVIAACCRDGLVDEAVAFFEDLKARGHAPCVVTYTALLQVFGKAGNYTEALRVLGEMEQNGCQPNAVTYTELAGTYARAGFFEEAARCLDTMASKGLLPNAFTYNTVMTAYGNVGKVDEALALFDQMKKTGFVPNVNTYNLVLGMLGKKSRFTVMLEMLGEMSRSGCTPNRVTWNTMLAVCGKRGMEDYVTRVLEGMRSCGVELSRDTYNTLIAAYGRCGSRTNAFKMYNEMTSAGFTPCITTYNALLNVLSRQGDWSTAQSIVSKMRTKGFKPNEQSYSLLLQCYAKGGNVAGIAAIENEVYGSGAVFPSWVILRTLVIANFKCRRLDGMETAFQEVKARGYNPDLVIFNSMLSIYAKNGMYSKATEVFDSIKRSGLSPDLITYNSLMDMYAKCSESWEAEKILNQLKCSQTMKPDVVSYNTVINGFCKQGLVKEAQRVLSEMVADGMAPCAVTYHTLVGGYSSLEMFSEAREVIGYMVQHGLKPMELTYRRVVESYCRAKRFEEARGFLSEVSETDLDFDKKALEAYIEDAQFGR", "assay": "EMSA; EMSA: radiolabeled RNA 15 pM, protein 0, 5, 10, 20 nM; binding buffer and temperature by reference [12]; protein stock in 400 mM NaCl, 50 mM Tris-HCl pH 7.5, 5", "details": "protein: recombinant; tags: MBP fusion removed by TEV cleavage; label: radiolabeled; single-stranded"}, "PPR10 TN variant [5]": {"target": "T3, PPR10 TN variant", "assay": "EMSA; high affinity; EMSA: radiolabeled RNA 15 pM, protein 0, 5, 10, 20 nM; binding buffer and temperature by reference [12]; protein stock in 400 mM NaCl, 50 mM Tris-HCl pH 7.5, 5", "details": "protein: recombinant; tags: MBP fusion removed by TEV cleavage; label: radiolabeled; single-stranded"}}, "data": [{"binder": "GUAGGCUUAACCAUUUC (ssRNA)", "note": "[GG RNA]", "values": [{"measurement": "binding result", "setting": "PPR10 TD variant [1]", "result": "binds"}, {"measurement": "binding result", "setting": "rPPR10 wild-type", "result": "no binding"}]}, {"binder": "Recombinant PPR10 (natural protein, maize, UniProt B8Y6I0 96-786, looked up, PPR10, maize chloroplast pentatricopeptide repeat protein (19 PPR motifs); mature PPR10 lacking the plastid targeting peptide; monomeric molecular weight of rPPR10 printed as 82.6 kDa; also called rPPR10) ASRRDELLRADITSLLKALELSGHWEWALALLRWAGKEGAADASALEMVVRALGREGQHDAVCALLDETPLPPGSRLDVRAYTTVLHALSRAGRYERALELFAELRRQGVAPTLVTYNVVLDVYGRMGRSWPRIVALLDEMRAAGVEPDGFTASTVIAACCRDGLVDEAVAFFEDLKARGHAPCVVTYNALLQVFGKAGNYTEALRVLGEMEQNGCQPDAVTYNELAGTYARAGFFEEAARCLDTMASKGLLPNAFTYNTVMTAYGNVGKVDEALALFDQMKKTGFVPNVNTYNLVLGMLGKKSRFTVMLEMLGEMSRSGCTPNRVTWNTMLAVCGKRGMEDYVTRVLEGMRSCGVELSRDTYNTLIAAYGRCGSRTNAFKMYNEMTSAGFTPCITTYNALLNVLSRQGDWSTAQSIVSKMRTKGFKPNEQSYSLLLQCYAKGGNVAGIAAIENEVYGSGAVFPSWVILRTLVIANFKCRRLDGMETAFQEVKARGYNPDLVIFNSMLSIYAKNGMYSKATEVFDSIKRSGLSPDLITYNSLMDMYAKCSESWEAEKILNQLKCSQTMKPDVVSYNTVINGFCKQGLVKEAQRVLSEMVADGMAPCAVTYHTLVGGYSSLEMFSEAREVIGYMVQHGLKPMELTYRRVVESYCRAKRFEEARGFLSEVSETDLDFDKKALEAYIEDAQFGR", "values": [{"measurement": "stoichiometry N", "setting": "[2]", "result": 2}]}, {"binder": "GUAUCCUUAACCAUUUC (ssRNA)", "note": "[wild-type RNA (EMSA)]", "values": [{"measurement": "binding result", "setting": "PPR10 TD variant [3]", "result": "no binding"}, {"measurement": "binding result", "setting": "PPR10 TN variant [4]", "result": "no binding"}]}, {"binder": "GUAAACUUAACCAUUUC (ssRNA)", "note": "[AA RNA]", "values": [{"measurement": "binding result", "setting": "PPR10 TN variant [5]", "result": "binds"}, {"measurement": "binding result", "setting": "rPPR10 wild-type", "result": "no binding"}]}]}
